The record followed here is the RNAGym collection of RNA variant scans (doi:10.7554/elife.80360).

Sequences and labels used below:
B1: Hammerhead Ribozyme (parent)
chain: ACCGGAUGUGCUUUCCGGUCUGAUGAGUCCGUGAGGACGAAACAG

The variants in the data set derive from B1. The data set is described as follows: self-cleavage, relative activity (ratio to wild type); higher = more cleavage; co-transcriptional.
On to ACCGGAUGUGCUUUCCGGUCUGAUGAGUCCGUGAGGAAUAAACAG, for which the self-cleavage worked out at 0.315. As for UCCGGAUGUGCUUUCUGGUCUGAUGAGUCCGUGAGGACGAAACAG, the figure is 0.431. Then ACCAGAUGUGCUUUCCGCUCUGAUGAGUCCGUGAGGACGAAACAG, with 0.333; and ACCGGAUGUGCUUUCCGGUCUGAUGAGUCCGUUAUGACGAAACAG, with 0.914; and ACCGGAUGUGCUUUCCGGUCUGAUGAGUCCGUGAGGACGACAUAG, with 0.316.

For ACCGGAUGUGCUUUCCGGCCCGAUGAGUCCGUGAGGACGAAACAG, the self-cleavage was 0.251. Then ACCUGAUGUCCUUUCCGGUCUGAUGAGUCCGUGAGGACGAAACAG, with 0.469.

For the variant ACCGGAUGUGCUUUCCGGUCUGAUGAGUCCGUGAGGCGGAAACAG, the self-cleavage was found to be 0.381. As for ACCGGAUGUGCUUUCCGGUCUGAUGAGUCCGGGAGGACGAAAUAG, the self-cleavage stood at 0.43.

Take ACCGGAUGUGCUUUCCGGUCUGGUGAGUCGGUGAGGACGAAACAG: the self-cleavage worked out at 0.248. As for ACCGGAUGUGUUUACCGGUCUGAUGAGUCCGUGAGGACGAAACAG, the figure is 0.998; as for ACCGGAUGAGCUUUCCGGUCUGAUGAGUCCGUGAAGACGAAACAG, 0.751.

Take ACCGAAUGUGCUUUCCGGUAUGAUGAGUCCGUGAGGACGAAACAG: the self-cleavage was 0.415. Regarding ACCGGAUGUGCUUUCCCGUCUGAUGAGUCCGUGAGGACGAAACAU, the self-cleavage was 0.394. With ACCGGAUGUGCUUUACGGUCCGAUGAGUCCGUGAGGACGAAACAG, the self-cleavage turned out to be 0.373. Then ACCGGAUGUGCUUUCCCGUCUAAUGAGUCCGUGAGGACGAAACAG, with 0.274. As for ACCGGAUGUGCUUUCCGGUCUGAUGAGUCCGUGAAGACGACACAG, the figure is 0.32. ACCGGAUGUGCUUUCCGGUCUGAUGAGUCCCGGAGGACGAAACAG: the self-cleavage was determined as 0.683.

As to ACCGCAUGUGCUUUACGGUCUGAUGAGUCCGUGAGGACGAAACAG, the self-cleavage was 0.953.

As for AACCGAUGUGCUUUCCGGUCUGAUGAGUCCGUGAGGACGAAACAG, the self-cleavage turned out to be 0.346.

Regarding ACCGGAUGUGCUUUCCGGUCUGAUGAGGCCGUGAUGACGAAACAG, the self-cleavage was determined as 0.58.

On to ACCGGAUGUGCUUUCUGGUCUGAUGAGUCCGUGAGGCCGAAACAG, for which the self-cleavage came to 0.843. As for ACCGGAUGUGCUUUCCGGGCUGAUGAGUCCGUGAGGACGAAACUG, the figure is 0.286; as for ACCGGAUGUUCUUUCCGGUCUGACGAGUCCGUGAGGACGAAACAG, 1.13; as for ACCGGAUGCGCUUUCCGGUCUGAGGAGUCCGUGAGGACGAAACAG, 0.948. As for ACCGGAUGCGCUUUCCGGUCUGAUGAGUACGUGAGGACGAAACAG, the figure is 0.77; as for ACCGGAUGUGCUUUCCGGUCUGAUGACUCCGUGAGGAAGAAACAG, 0.863; as for ACCGGAUGUGCUUUCCGGUCUGCUGAGUCAGUGAGGACGAAACAG, 0.306.

As for ACCUGAUGUGCUUUCCGGUCUGAUGAAUCCGUGAGGACGAAACAG, the self-cleavage came out at 0.312. As for ACCGGAUGUUCUUACCGGUCUGAUGAGUCCGUGAGGACGAAACAG, the figure is 0.822. On to ACCGGACGUGCUUUCCGGUCUGAUGAGUCCGUGACGACGAAACAG, for which the self-cleavage stood at 0.849. Regarding ACCGGAUGUGCUUUCCGGUCUGAUGAAUCCGUGAGGACGAAGCAG, the self-cleavage worked out at 0.321. Regarding ACCGGAUGUCCUCUCCGGUCUGAUGAGUCCGUGAGGACGAAACAG, the self-cleavage turned out to be 1.03. With ACCGGAUGCGCUUUACGGUCUGAUGAGUCCGUGAGGACGAAACAG, the self-cleavage stood at 0.956. Turning to ACCGGAUGUGCUUUCCGGUCUGAUGACUCCCUGAGGACGAAACAG, the self-cleavage amounted to 0.666.

Turning to GCCGGAUGUGCUUUCCGGUCUGAUGAGUCCGUGAGGACGAAAGAG, the self-cleavage was found to be 0.395. For ACCGGAUGUGCUUGCCGGUCUGAUGAGUCAGUGAGGACGAAACAG, the self-cleavage was found to be 0.924. As for AUCGGAUGUGCUUUCCGGUCUGAUGAGUCCGUGAGGACAAAACAG, the figure is 0.376. ACCGGAUUUGCUUCCCGGUCUGAUGAGUCCGUGAGGACGAAACAG: the self-cleavage was determined as 1.06. ACCGGAUGUGCUUUCCGGUCUGAUAAGUCCGUGAUGACGAAACAG: the self-cleavage was 0.35. As for ACCGGCUCUGCUUUCCGGUCUGAUGAGUCCGUGAGGACGAAACAG, the self-cleavage worked out at 0.916.

With ACCGGAUGUGCUUUCCGGUCUGAUGCGUCCAUGAGGACGAAACAG, the self-cleavage came to 0.687. With UCCGGAUGUGCUUUCCGGUCUGAUGAGUCCGUGAGGACGACACAG, the self-cleavage was 0.378. ACCGGAUGUGGUUUGCGGUCUGAUGAGUCCGUGAGGACGAAACAG: the self-cleavage was determined as 0.88.

For the variant ACCAGAUGUGCUUUCCGGUCUGAUGAGUCCGUGAGUACGAAACAG, the self-cleavage worked out at 0.37. As for ACCGGAUGUGCUUUCCGGUGUAAUGAGUCCGUGAGGACGAAACAG, the figure is 0.252; as for ACCGGAUGUGCUCUCCGGUCUGAUGAGUCUGUGAGGACGAAACAG, 1.24; as for ACCGGAUUUGCUUUCCGGUCUGAUGAGUCCGUGAGGACGAAACAA, 0.744.

On to ACCGGAUGUGCUUUCCGGUUUGAUGAGUCCGUGAAGACGAAACAG, for which the self-cleavage worked out at 0.412. As to ACCGUAUGUGCUUUCCGGUCUGAUGAGUCCGUGAGUACGAAACAG, the self-cleavage stood at 0.327. As for ACCGGAUGUACUUUCCGGUCUGAUGAGUCCGUGAGGACGAAACAC, the figure is 0.93; as for ACCGGAUGUGCUUUCCGGCUUGAUGAGUCCGUGAGGACGAAACAG, 0.321. As to ACCGGAUGUGCUUUCCUGUCUAAUGAGUCCGUGAGGACGAAACAG, the self-cleavage was determined as 0.368. As for ACCGGAUGUGCUUUCCGGGCUGAUGAGGCCGUGAGGACGAAACAG, the figure is 0.355. In the case of ACCGGAUGUGCUUGCCGGUCUGAUGAGUACGUGAGGACGAAACAG, the self-cleavage turned out to be 0.677. As for ACCGGCUGUGUUUUCCGGUCUGAUGAGUCCGUGAGGACGAAACAG, the self-cleavage was 0.592. As for ACCGGAUGUCCUUUCCGGUCUGAUGAGUCAGUGAGGACGAAACAG, the figure is 0.989; as for ACCGGAUGUGCUUUACGGUCUGAUGAGUCCGUGAGGACGAAGCAG, 0.264.

ACCGGAUGUGCUUGCCGGUCUGAUGAGUCCGCGAGGACGAAACAG: the self-cleavage was 0.653. Then ACCGGAUGUGCUUUCCGAUCUGAUGAGUCCGUGAGGACGAAUCAG, with 0.338; and ACCGGAUGUGCUUUCCGGUCUGAUGAGUCCGUGAGGGCUAAACAG, with 0.307; and ACCGGAUGUGCUUUCCGGUCUGAUGAGUCCGUGAUGACGAAACAU, with 0.421. As for ACCGGAUGUGCUUUCCGGUCUUAUUAGUCCGUGAGGACGAAACAG, the self-cleavage came to 0.303. Then ACCGGAUGCGCUUUCCGGUCUGAUGAGUCCGUGAGGAUGAAACAG, with 1.1; and ACCGGAUGUGCUUGCCGGACUGAUGAGUCCGUGAGGACGAAACAG, with 0.383; and ACCGGAUGUGCUUUCCGGUCUAACGAGUCCGUGAGGACGAAACAG, with 0.311. For ACCGGUUGUGCUUUCCGGUCUGAUGAGUCCGUGAGGACGACACAG, the self-cleavage is 0.334. For the variant ACCGGAUGCGCUUUCCGGUGUGAUGAGUCCGUGAGGACGAAACAG, the self-cleavage is 0.437.

In the case of ACCGGAUGUGCUUUCCGGUCUGAUGAGUCCCUGAGCACGAAACAG, the self-cleavage was 0.453. Then ACCGGAUGUGCUUUCCGGUCUAAUGAGUCCGUAAGGACGAAACAG, with 0.353; and ACCGGAUGUGCUUUCCGGUCUGAUGAGUGCGUGAGGACGGAACAG, with 0.238; and ACCGGAUGUGCUUUCCGGUCUGAUGAGUUCCUGAGGACGAAACAG, with 0.673. Take UCCGGAUGUGCUUUCCGGUCUGAUGAGUCCGUGAAGACGAAACAG: the self-cleavage was 0.635. Then AACGGAUGUGCUUUCCGGUCUGAUGAGUCCGUGCGGACGAAACAG, with 0.387. Then ACCGGAUGUGCUUUCCGGUCUGAUGAGUCCGUGAGGCCGAAAGAG, with 0.28; and AACGGAUGUGCUUUCCGUUCUGAUGAGUCCGUGAGGACGAAACAG, with 1.21; and AACGGAUGUGCUUUCCGAUCUGAUGAGUCCGUGAGGACGAAACAG, with 0.883. As for ACCGGAUGUGCUUUCCGGUCUGAUGAGUCCGUGAGGUAGAAACAG, the figure is 0.693; as for ACCGGAUGUGCUUUCCGGUCUGGUGAGUACGUGAGGACGAAACAG, 0.319. As for ACCGGAUGUGCUUGCCGGUCUGAUGAGUCCGUGAGGACGAAAGAG, the self-cleavage turned out to be 0.416. With ACCUGAUGUGCUUUCCGGUCUGAUGAGUCCGUGAGGAUGAAACAG, the self-cleavage turned out to be 0.315.

For ACCGGAUGUGCUUUCCGUUCUGAUGAGUCCGUGAGGACGACACAG, the self-cleavage worked out at 0.427.

Regarding ACCGGAUGUGCUUUCCGGUCUGAUGAGUCAGUGAGGACGCAACAG, the self-cleavage was determined as 0.466. Consider ACCGGAUGAGCUUUCCGGUCUGAUGAGUCUGUGAGGACGAAACAG, for which the self-cleavage was 1.07. As for ACCGGAUGUGCCUUCGGGUCUGAUGAGUCCGUGAGGACGAAACAG, the figure is 0.652.

As for CCCGGAUGCGCUUUCCGGUCUGAUGAGUCCGUGAGGACGAAACAG, the self-cleavage came out at 0.394.

With ACCGCAUGUGCUUUCCGGUCUGAUGAGUCCGUGAGGACGAAAAAG, the self-cleavage was 0.294. As to ACCGGAUGUGCUUUCCGGUCUCAUGAGUCCGUGAGGACGAACCAG, the self-cleavage turned out to be 0.309.

Take ACCGGAUGUGCUUUCCGGUCUGAUGAGUCGGUGAGGACGAAACAC: the self-cleavage worked out at 0.608. As for ACCUGAUGUGCUUUCCGGUCUGAUGAGUCCGUGAGGACGAAACAC, the figure is 0.324. For the variant ACCGAGUGUGCUUUCCGGUCUGAUGAGUCCGUGAGGACGAAACAG, the self-cleavage was 0.82. For the variant ACCGGAUGUGCUUUCCGGUCCGAUGCGUCCGUGAGGACGAAACAG, the self-cleavage was 0.404. ACCGGAUGUGCUUUCCGGUCUGAUGAGUCCGAGAGGACGAAACAU: the self-cleavage was found to be 0.707. Take ACCGGAUGUGCUUUCCGGUCUGAUGAGUCCGUCAAGACGAAACAG: the self-cleavage came to 0.701. Then ACCGGAUGUGCUUUCCGGUCGGAUGAGUCCGUGAGGACGAAACAU, with 0.281; and ACCGGAUGUGCUUUCCGGUCAGAUGAGUCCGUGAGGACGAAACAU, with 0.432; and ACCGGAUGUGCUUUCCUGUCUGAUGAGUCCGUGAUGACGAAACAG, with 0.454. Then ACCGGACGUGCUUUCCGGUCUGAUGAGUCCGUGAGGACGAAACAG, with 1.05; and ACCGGGUGUGCUUUCCGGUCUGAUGAGUCCGUGUGGACGAAACAG, with 0.82; and ACCGGAUGUGCUUUCCGGUUUGAUCAGUCCGUGAGGACGAAACAG, with 0.273.

Consider ACCGGAUGAGCUUUCCGGUCUGAUGAGUCCUUGAGGACGAAACAG, for which the self-cleavage worked out at 1.3.

Take ACCUGAUGUGCUUUCCGGUCUGUUGAGUCCGUGAGGACGAAACAG: the self-cleavage was 0.333. Regarding ACCGGAUGUGCUUUCCGGUCUGAUGAGUCUGAGAGGACGAAACAG, the self-cleavage worked out at 0.892. As for ACCGGAUGUACUUUCCGGUCUGCUGAGUCCGUGAGGACGAAACAG, the figure is 0.375; as for AUCGGAUGUUCUUUCCGGUCUGAUGAGUCCGUGAGGACGAAACAG, 1.39; as for AACGGAUGUGCUUUCCGGUCUGAUGAGUCCGUGAGCACGAAACAG, 0.307.

Take ACCUGAUGUGCUUUCUGGUCUGAUGAGUCCGUGAGGACGAAACAG: the self-cleavage stood at 1.05. As for ACCGGAUGAGCUUUCCGGUCUGAUGAAUCCGUGAGGACGAAACAG, the figure is 0.841. Consider ACCGGAUGUGCUUUCCGGUCUGAUGAGGCCGUCAGGACGAAACAG, for which the self-cleavage worked out at 1.2. Then GCCGGAUGUGCUUUCCGGUCUGAAGAGUCCGUGAGGACGAAACAG, with 1.78; and ACAGGAUGUGCUUACCGGUCUGAUGAGUCCGUGAGGACGAAACAG, with 0.422. Then ACCGGAUAUGCUUUCUGGUCUGAUGAGUCCGUGAGGACGAAACAG, with 1.13. As for ACCGGAUGUGCUUUCCGGUCUGAUGAGUCUGUGAGGACGAAACAU, the self-cleavage worked out at 0.981.

Regarding ACCGGAUGUGCUUUUCGGUCUGAUGAGUCCGUGCGGACGAAACAG, the self-cleavage stood at 0.98.
